Data from US9029508 (dated 2015).
Each block holds one binder with its values, some of them ahead of it.

What was measured:
[1] = molecular target: DLL4 (human, UniProt Q9NR61); assay: ELISA
[2] = molecular target: T1, VEGF (human, UniProt P15692); assay: ELISA
T1 chain: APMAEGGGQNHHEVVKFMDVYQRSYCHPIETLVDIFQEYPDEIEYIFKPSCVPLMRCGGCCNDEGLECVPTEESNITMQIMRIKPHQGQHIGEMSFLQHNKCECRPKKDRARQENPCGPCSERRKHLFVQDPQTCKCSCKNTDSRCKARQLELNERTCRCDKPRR

Chain of DLL4 (Q9NR61 27-524): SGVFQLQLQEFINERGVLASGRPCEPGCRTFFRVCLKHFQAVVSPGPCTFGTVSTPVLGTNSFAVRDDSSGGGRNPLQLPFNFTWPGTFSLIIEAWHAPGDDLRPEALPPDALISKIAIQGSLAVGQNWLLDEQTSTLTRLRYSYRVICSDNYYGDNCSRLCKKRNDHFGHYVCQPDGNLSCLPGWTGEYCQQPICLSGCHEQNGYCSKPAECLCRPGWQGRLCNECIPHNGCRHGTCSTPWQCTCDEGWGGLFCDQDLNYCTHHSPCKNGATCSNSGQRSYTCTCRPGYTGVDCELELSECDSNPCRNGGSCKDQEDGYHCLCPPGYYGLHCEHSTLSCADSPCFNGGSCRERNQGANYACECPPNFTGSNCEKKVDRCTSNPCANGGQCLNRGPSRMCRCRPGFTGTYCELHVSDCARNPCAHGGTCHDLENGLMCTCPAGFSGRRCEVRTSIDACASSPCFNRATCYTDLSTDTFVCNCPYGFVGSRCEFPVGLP

B1: DVD500 DLL4 arm (antibody, V domains shown)
VH: EVQLQQSGPELVKPGASVKMSCKASGYTFTSYVINWVKQKPGQGLEWIGLINPYNDGTKYNEKFKVKATLTSDKSSSTAYMELSSLTSEDSAVYYCASYYYGSRYYFDYWGQGTTLTVSS
VL: DIQMTQSSSYLSVSLGGRVTITCKASDHINNWLAWYQQKPGNAPRLLISGATSLETGVPSRFSGSGSGKDYTLSITSLQTEDVATYYCQQYWSIPLTFGAGTKLELKR
modifications: DVD-Ig inner
EC50 [1]: 0.57 nM

B2: DVD459 DLL4 arm (antibody, V domains shown)
VH: QVQLVQSGAEVKKPGASVKISCKASGYSFTAYYIHWVKQAPGQGLEWIGYISSYNGATNYNQKFKGRVTFTTDTSTSTAYMELRSLRSDDTAVYYCARDYDYDVGMDYWGQGTLVTVSS
VL: DIVMTQSPDSLAVSLGERATISCRASESVDNYGISFMKWFQQKPGQPPKLLIYAASNQGSGVPDRFSGSGSGTDFTLTISSLQAEDVAVYYCQQSKEVPWTFGGGTKVEIKR
modifications: DVD-Ig outer
EC50 [1]: 0.26 nM

B3: DVD463 DLL4 arm (antibody, V domains shown)
VH: B2 VH
VL: B2 VL
modifications: DVD-Ig outer
EC50 [1]: 0.5 nM

B4: DVD448 DLL4 arm (antibody, V domains shown)
VH: B2 VH
VL: B2 VL
modifications: DVD-Ig inner
EC50 [1]: 0.41 nM

B5: DVD472 DLL4 arm (antibody)
chain 1: EVQLVESGGGLVQPGGSLRLSCAASGFTFTDNWISWVRQAPGKGLEWVGYISPNSGFTYYADSVKGRFTISADTSKNTAYLQMNSLRAEDTAVYYCARDNFGGYFDYWGQGTLVTVSS
chain 2: DIQMTQSPSSLSASVGDRVTITCRASQDVSTAVAWYQQKPGKAPKLLIYSASFLYSGVPSRFSGSGSGTDFTLTISSLQPEDFATTYYCQQSYTGTVTFGQGTKVEIKR
modifications: DVD-Ig inner
EC50 [1]: 2.78 nM

B6: DVD474 DLL4 arm (antibody)
chain 1: B5 chain 1
chain 2: B5 chain 2
modifications: DVD-Ig inner
EC50 [1]: 0.57 nM

B7: DVD482 DLL4 arm (antibody)
chain 1: B5 chain 1
chain 2: B5 chain 2
modifications: DVD-Ig inner
EC50 [1]: 0.36 nM

B8: DVD527 DLL4 arm (antibody, V domains shown)
VH: EVQLQQSGPELEKPGASVKISCKASGYSFTGYNMNWVKQSNGKSLEWIGNIDPYFGGTNYNQKFKGKATLTVDKSSSTAYMQLKSLTSEDSAVYYCARNYDYDGGCFDYWGQGTTLTVSS
VL: QAVVTQESALTTSPGETVTLTCRSSTGAVTTSNYANWVQEKPDHLFTGLIGGTNNRAPGVPARFSGSLIGDKAALTITGAQTEDEAIYFCALWYSNHWVFGGGTKLTVLG
modifications: DVD-Ig outer
EC50 [1]: 0.2 nM

B9: DVD463 VEGF arm (antibody, V domains shown)
VH: EVQLVESGGGLVQPGGSLRLSCAASGFTINASWIHWVRQAPGKGLEWVGAIYPYSGYTNYADSVKGRFTISADTSKNTAYLQMNSLRAEDTAVYYCARWGHSTSPWAMDYWGQGTLVTVSS
VL: DIQMTQSPSSLSASVGDRVTITCRASQVIRRSLAWYQQKPGKAPKLLIYAASNLASGVPSRFSGSGSGTDFTLTISSLQPEDFATYYCQQSNTSPLTFGQGTKVEIKR
EC50 [2]: 1730 nM

B11: DVD509 VEGF arm (antibody, V domains shown)
VH: B9 VH
VL: B9 VL
EC50 [2]: 121 nM

B13: DVD485 VEGF arm (antibody, V domains shown)
VH: B9 VH
VL: B9 VL
EC50 [2]: 121 nM

B14: DVD491 VEGF arm (antibody, V domains shown)
VH: B9 VH
VL: B9 VL
EC50 [2]: 1250 nM

B15: DVD527 VEGF arm (antibody, V domains shown)
VH: B9 VH
VL: B9 VL
EC50 [2]: 2380 nM

B16: DVD479 VEGF arm (antibody, V domains shown)
VH: B9 VH
VL: B9 VL
EC50 [2]: 456 nM

B17: DVD503 VEGF arm (antibody, V domains shown)
VH: B9 VH
VL: B9 VL
EC50 [2]: 430 nM

B24: DVD457 VEGF arm (antibody, V domains shown)
VH: B9 VH
VL: B9 VL
EC50 [2]: 1480 nM

B25: DVD467 VEGF arm (antibody, V domains shown)
VH: B9 VH
VL: B9 VL
EC50 [2]: 1810 nM

B26: DVD521 VEGF arm (antibody, V domains shown)
VH: B9 VH
VL: B9 VL
EC50 [2]: 655 nM

B28: DVD515 VEGF arm (antibody, V domains shown)
VH: B9 VH
VL: B9 VL
EC50 [2]: 3020 nM

B29: DVD451 VEGF arm (antibody, V domains shown)
VH: B9 VH
VL: B9 VL
EC50 [2]: 2400 nM

B30: DVD473 VEGF arm (antibody, V domains shown)
VH: B9 VH
VL: B9 VL
EC50 [2]: 388 nM

B31: DVD533 VEGF arm (antibody, V domains shown)
VH: B9 VH
VL: B9 VL
EC50 [2]: 1260 nM

B32: DVD445 VEGF arm (antibody, V domains shown)
VH: B9 VH
VL: B9 VL
EC50 [2]: 14500 nM

B34: DVD497 VEGF arm (antibody, V domains shown)
VH: B9 VH
VL: B9 VL
EC50 [2]: 858 nM

B39: DVD498 VEGF arm (antibody, V domains shown)
VH: B9 VH
VL: B9 VL
EC50 [2]: 30.6 nM

Continued by falling EC50 [2], values first:

EC50 [2]: 28 nM
B19: DVD486 VEGF arm (antibody, V domains shown)
VH: B9 VH
VL: B9 VL

EC50 [2]: 27.7 nM
B35: DVD528 VEGF arm (antibody, V domains shown)
VH: B9 VH
VL: B9 VL

EC50 [2]: 25.6 nM
B33: DVD468 VEGF arm (antibody, V domains shown)
VH: B9 VH
VL: B9 VL

EC50 [2]: 24.6 nM
B40: DVD516 VEGF arm (antibody, V domains shown)
VH: B9 VH
VL: B9 VL

EC50 [2]: 23.9 nM
B20: DVD510 VEGF arm (antibody, V domains shown)
VH: B9 VH
VL: B9 VL

EC50 [2]: 23.6 nM
B37: DVD534 VEGF arm (antibody, V domains shown)
VH: B9 VH
VL: B9 VL

EC50 [2]: 23.5 nM
B21: DVD522 VEGF arm (antibody, V domains shown)
VH: B9 VH
VL: B9 VL

EC50 [2]: 23 nM
B27: DVD480 VEGF arm (antibody, V domains shown)
VH: B9 VH
VL: B9 VL

EC50 [2]: 21.5 nM
B18: DVD458 VEGF arm (antibody, V domains shown)
VH: B9 VH
VL: B9 VL

EC50 [2]: 19.3 nM
B10: DVD464 VEGF arm (antibody, V domains shown)
VH: B9 VH
VL: B9 VL

EC50 [2]: 17.9 nM
B23: DVD474 VEGF arm (antibody, V domains shown)
VH: B9 VH
VL: B9 VL

EC50 [2]: 17.8 nM
B36: DVD452 VEGF arm (antibody, V domains shown)
VH: B9 VH
VL: B9 VL

EC50 [2]: 16.7 nM
B12: DVD504 VEGF arm (antibody, V domains shown)
VH: B9 VH
VL: B9 VL

EC50 [2]: 14.4 nM
B38: DVD446 VEGF arm (antibody, V domains shown)
VH: B9 VH
VL: B9 VL

EC50 [2]: 8.42 nM
B22: DVD492 VEGF arm (antibody, V domains shown)
VH: B9 VH
VL: B9 VL
